In PMC2805098:
Positions count from the first letter of the chain named. In names and notes the source's numbering stands.

B1: Phe223Leu MTHFR (Escherichia coli K-12; F223L) (protein)
chain: MSFFHASQRDALNQSLAEVQGQINVSFEFFPPRTSEMEQTLWNSIDRLSSLKPKFVSVTYGANSGERDRTHSIIKGIKDRTGLEAAPHLTCIDATPDELRTIARDYWNNGIRHIVALRGDLPPGSGKPEMYASDLVTLLKEVADFDISVAAYPEVHPEAKSAQADLLNLKRKVDAGANRAITQFFFDVESYLRFRDRCVSAGIDVEIIPGILPVSNFKQAKKLADMTNVRIPAWMAQMFDGLDDDAETRKLVGANIAMDMVKILSREGVKDFHFYTLNRAEMSYAICHTLGVRPGL
B2: Phe223Ala MTHFR (Escherichia coli K-12; F223A) (protein)
chain: B1 chain with L223A

Experiments:
[1] = substrate: Nc1nc2c(c(=O)[nH]1)N1CN(c3ccc(C(=O)N[C@@H](CCC(=O)O)C(=O)O)cc3)C[C@H]1CN2; experiment: NADH-CH2-H4folate oxidoreductase assay, steady-state; assay type: biochemical, Escherichia coli; conditions: other: 1000 μM NADH, fit to eq 6, anaerobic, 25 °C, pH 7.2
[2] = substrate: Nc1nc2c(c(=O)[nH]1)N1CN(c3ccc(C(=O)N[C@@H](CCC(=O)O)C(=O)O)cc3)C[C@H]1CN2; experiment: purified protein, by the assay type; conditions: other: 500 μM NADH, anaerobic, 25 °C, pH 7.2

| Protein | Km [1] [µM] | Km [2] [µM] |
| --- | --- | --- |
| B1 | 8 ± 2 | – |
| B2 | – | 93 ± 16 |
